One molecule from PMC10636204 can be followed below.

By stoichiometry N is commonly meant a count of units in the complex or per binding partner.

For the assay, the target named is T1, mouse TMEM63B (purified, GFP tag removed) (mouse), Q3TWI9.
T1 chain: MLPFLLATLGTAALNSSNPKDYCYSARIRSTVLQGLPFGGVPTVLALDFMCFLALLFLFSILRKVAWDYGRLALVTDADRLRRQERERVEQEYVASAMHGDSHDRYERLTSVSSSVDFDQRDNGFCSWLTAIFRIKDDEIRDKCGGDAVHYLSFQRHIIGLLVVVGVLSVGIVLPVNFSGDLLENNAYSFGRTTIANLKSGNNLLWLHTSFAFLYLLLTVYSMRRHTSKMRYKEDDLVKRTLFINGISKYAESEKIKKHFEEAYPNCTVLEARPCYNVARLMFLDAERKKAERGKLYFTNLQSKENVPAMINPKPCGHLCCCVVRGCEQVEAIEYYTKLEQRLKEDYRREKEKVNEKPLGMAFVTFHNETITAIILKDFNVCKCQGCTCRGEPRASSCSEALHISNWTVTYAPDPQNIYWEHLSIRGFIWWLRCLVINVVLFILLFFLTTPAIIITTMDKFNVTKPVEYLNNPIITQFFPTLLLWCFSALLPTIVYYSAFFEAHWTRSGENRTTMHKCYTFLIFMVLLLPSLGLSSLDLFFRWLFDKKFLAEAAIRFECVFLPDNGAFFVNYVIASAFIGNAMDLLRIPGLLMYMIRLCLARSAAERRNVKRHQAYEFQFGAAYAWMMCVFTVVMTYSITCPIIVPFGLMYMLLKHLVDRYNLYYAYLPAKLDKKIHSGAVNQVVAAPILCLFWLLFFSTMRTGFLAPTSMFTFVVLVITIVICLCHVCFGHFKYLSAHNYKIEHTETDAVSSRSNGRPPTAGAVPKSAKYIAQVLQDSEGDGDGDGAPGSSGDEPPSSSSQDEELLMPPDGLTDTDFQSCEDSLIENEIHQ
The assay is described as follows: cryo-EM 2D classification; purified mouse TMEM63B; 2D classification of particles, top/bottom views. The settings on record: remark: other sources report otherwise.

B1: mouse TMEM63B (purified, GFP tag removed), Q3TWI9 1-832 (natural protein)
chain: MLPFLLATLGTAALNSSNPKDYCYSARIRSTVLQGLPFGGVPTVLALDFMCFLALLFLFSILRKVAWDYGRLALVTDADRLRRQERERVEQEYVASAMHGDSHDRYERLTSVSSSVDFDQRDNGFCSWLTAIFRIKDDEIRDKCGGDAVHYLSFQRHIIGLLVVVGVLSVGIVLPVNFSGDLLENNAYSFGRTTIANLKSGNNLLWLHTSFAFLYLLLTVYSMRRHTSKMRYKEDDLVKRTLFINGISKYAESEKIKKHFEEAYPNCTVLEARPCYNVARLMFLDAERKKAERGKLYFTNLQSKENVPAMINPKPCGHLCCCVVRGCEQVEAIEYYTKLEQRLKEDYRREKEKVNEKPLGMAFVTFHNETITAIILKDFNVCKCQGCTCRGEPRASSCSEALHISNWTVTYAPDPQNIYWEHLSIRGFIWWLRCLVINVVLFILLFFLTTPAIIITTMDKFNVTKPVEYLNNPIITQFFPTLLLWCFSALLPTIVYYSAFFEAHWTRSGENRTTMHKCYTFLIFMVLLLPSLGLSSLDLFFRWLFDKKFLAEAAIRFECVFLPDNGAFFVNYVIASAFIGNAMDLLRIPGLLMYMIRLCLARSAAERRNVKRHQAYEFQFGAAYAWMMCVFTVVMTYSITCPIIVPFGLMYMLLKHLVDRYNLYYAYLPAKLDKKIHSGAVNQVVAAPILCLFWLLFFSTMRTGFLAPTSMFTFVVLVITIVICLCHVCFGHFKYLSAHNYKIEHTETDAVSSRSNGRPPTAGAVPKSAKYIAQVLQDSEGDGDGDGAPGSSGDEPPSSSSQDEELLMPPDGLTDTDFQSCEDSLIENEIHQ
B1 registered a stoichiometry N of 2.
